# Experimental data from patent publication US20220048996A1 (F STAR BETA, published 2022).
# T1: mouse OX40 expressed on DO11.10 cells (DO11.10-mOX40) (mouse, UniProt P47741 20-272)
# T1 construct: Also used here for OX40 on primary mouse T cells in the functional rows; also called OX40 on mouse T cells
# T1 sequence: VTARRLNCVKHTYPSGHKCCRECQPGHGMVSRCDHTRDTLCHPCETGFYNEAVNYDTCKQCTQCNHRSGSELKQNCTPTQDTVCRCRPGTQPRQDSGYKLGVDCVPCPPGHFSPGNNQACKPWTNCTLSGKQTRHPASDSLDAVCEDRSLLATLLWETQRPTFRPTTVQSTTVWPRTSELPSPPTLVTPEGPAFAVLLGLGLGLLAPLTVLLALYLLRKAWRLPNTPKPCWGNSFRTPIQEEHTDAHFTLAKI
# T2: human OX40 expressed on DO11.10 cells (DO11.10-hOX40) (human, UniProt P43489 29-277)
# T2 construct: Also used here for OX40 on primary human T cells in the functional rows; also called human OX40 receptor; OX40 on human T cells
# T2 sequence: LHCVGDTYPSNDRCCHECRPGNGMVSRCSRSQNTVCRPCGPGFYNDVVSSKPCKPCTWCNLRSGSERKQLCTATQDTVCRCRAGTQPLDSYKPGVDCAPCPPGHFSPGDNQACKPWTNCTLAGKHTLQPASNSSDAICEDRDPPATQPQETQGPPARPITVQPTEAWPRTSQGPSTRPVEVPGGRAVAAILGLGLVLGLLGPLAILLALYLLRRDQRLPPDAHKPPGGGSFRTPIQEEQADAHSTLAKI
# T3: cynomolgus OX40 expressed on DO11.10 cells (DO11.10-cOX40) (cynomolgus, UniProt P43489 29-277 (human entry))
# T3 chain: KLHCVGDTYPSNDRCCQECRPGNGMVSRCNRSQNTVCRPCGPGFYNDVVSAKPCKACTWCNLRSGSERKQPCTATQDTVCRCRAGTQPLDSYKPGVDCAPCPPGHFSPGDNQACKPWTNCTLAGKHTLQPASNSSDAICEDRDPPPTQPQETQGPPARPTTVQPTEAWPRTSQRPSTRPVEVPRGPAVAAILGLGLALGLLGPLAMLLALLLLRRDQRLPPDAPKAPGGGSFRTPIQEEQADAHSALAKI
# T4: cOX40-mFc (cynomolgus)
# T4 construct: Dimeric; also called cyno OX40-mFc
# T4 chain: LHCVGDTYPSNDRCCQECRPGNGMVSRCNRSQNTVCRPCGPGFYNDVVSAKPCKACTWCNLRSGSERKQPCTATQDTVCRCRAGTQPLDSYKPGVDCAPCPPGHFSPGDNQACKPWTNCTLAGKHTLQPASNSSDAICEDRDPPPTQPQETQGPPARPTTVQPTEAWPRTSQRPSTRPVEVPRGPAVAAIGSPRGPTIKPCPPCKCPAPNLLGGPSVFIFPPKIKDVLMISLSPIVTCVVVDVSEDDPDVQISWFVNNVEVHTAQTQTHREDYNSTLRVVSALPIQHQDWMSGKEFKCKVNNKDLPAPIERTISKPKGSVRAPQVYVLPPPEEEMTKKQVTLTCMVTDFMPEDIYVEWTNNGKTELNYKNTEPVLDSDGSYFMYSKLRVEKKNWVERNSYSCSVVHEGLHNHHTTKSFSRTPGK
# T5: hOX40-mFc (human)
# T5 construct: Dimeric; also called human OX40-mFc
# T5 chain: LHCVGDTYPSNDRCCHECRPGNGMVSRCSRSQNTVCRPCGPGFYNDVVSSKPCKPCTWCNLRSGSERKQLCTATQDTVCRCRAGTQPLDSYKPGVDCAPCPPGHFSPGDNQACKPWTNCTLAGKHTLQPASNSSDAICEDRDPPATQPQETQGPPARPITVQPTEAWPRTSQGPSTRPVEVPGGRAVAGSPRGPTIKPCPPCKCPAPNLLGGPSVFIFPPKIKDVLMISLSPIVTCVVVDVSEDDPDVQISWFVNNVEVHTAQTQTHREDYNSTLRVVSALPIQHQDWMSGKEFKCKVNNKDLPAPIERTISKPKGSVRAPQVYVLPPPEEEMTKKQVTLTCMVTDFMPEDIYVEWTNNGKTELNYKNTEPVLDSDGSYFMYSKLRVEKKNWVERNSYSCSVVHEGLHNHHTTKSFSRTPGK
# T6: cynomolgus CD137 expressed on DO11.10 cells (DO11.10-cCD137) (cynomolgus monkey, UniProt Q07011 24-255 (human entry))
# T6 chain: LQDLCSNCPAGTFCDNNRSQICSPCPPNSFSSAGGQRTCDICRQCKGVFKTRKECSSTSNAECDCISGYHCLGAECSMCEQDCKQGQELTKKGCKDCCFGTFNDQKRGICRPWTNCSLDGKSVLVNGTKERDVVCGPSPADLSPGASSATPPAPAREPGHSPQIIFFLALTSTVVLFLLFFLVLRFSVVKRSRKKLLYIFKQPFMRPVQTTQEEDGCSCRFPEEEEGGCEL
# Assays:
# [1] = target: T1, mouse OX40 expressed on DO11.10 cells …; assay: flow cytometry, fluorescently-labelled antibody on DO11.10-mOX40
# [2] = target: T2, human OX40 expressed on DO11.10 cells …; assay: flow cytometry on DO11.10 cells expressing the target
# Method: (§1) 50 μl of the antibody dilutions were added to the wells containing cells (final volume 100 μl) and incubated at 4° C. for 1 hour. […] The plates were washed and resuspended in 100 μl of PBS containing DAPI (Biotium, cat no 40043) at 1 μg/ml. The plates were analysed using a Canto II flow cytometer (BD Bioscience) and the data analysed using FlowJo. Dead cells were identified by their higher fluorescence on the UV (405 nm/450/50) channel and excluded from analysis. […] The GMFI data was fit using log (agonist) vs response (three parameters) in Graph Pad Prism Software to generate EC₅₀ values.
# [3] = target: T3, cynomolgus OX40 expressed on DO11.10 …; assay: as above
# Method: as §1
# cOX40-mFc = target: T4, cOX40-mFc; assay: SPR, antibody captured via anti-human Fab, antigen flowed
# hOX40-mFc = target: T5, hOX40-mFc; assay: as above
# [4] = target: T7, human CD137 expressed on DO11.10 cells (DO11.10-hCD137) (human, UniProt Q07011 24-255); assay: flow cytometry on DO11.10 cells expressing the target, mean ± SD of three experiments
# T7 construct: also called CD137 on human T cells
# Method: as §1
# (§2) However, in this experiment, instead of using HEK cells to analyse the non-specific binding, non-transduced DO11.10 cells were used. […] The experiment was repeated three times to increase the reliability of the EC₅₀ values calculated.
# [5] = target: T6, cynomolgus CD137 expressed on DO11.10 …; assay: as above
# Method: as §1, §2
# [6] = target: T2, human OX40 expressed on DO11.10 cells …; assay: flow cytometry on DO11.10 cells expressing the target, three experiments
# Method: as §1, §2
# [7] = target: T3, cynomolgus OX40 expressed on DO11.10 …; assay: as above
# Method: as §1, §2
binder,measurement,setting,value
"antibody OX86 (Biolegend cat no 119408) (antibody, V domains shown) VH: QVQLKESGPGLVQPSQTLSLTCTVSGFSLTGYNLHWVRQPPGKGLEWMGRMRYDGDTYYNSVLKSRLSISRDTSKNQVFLKMNSLQTDDTAIYYCTRDGRGDSFDYWGQGVMVTVSS VL: DIVMTQGALPNPVPSGESASITCRSSQSLVYKDGQTYLNWFLQRPGQSPQLLTYWMSTRASGVSDRFSGSGSGTYFTLKISRVRAEDAGVYYCQQVREYPFTFGSGTKLEIK",fluorescence over non-transduced cells (fold),[1],≥ 10 fold
"G1/MOR7480.1 (antibody, human IgG1, lambda, also called G1/M0R7480.1) heavy: not shown light: SYELTQPPSVSVSPGQTASITCSGDNIGDQYAHWYQQKPGQSPVLVIYQDKNRPSGIPERFSGSNSGNTATLTISGTQAMDEADYYCATYTGFGSLAVFGGGTKLTVLGQPKAAPSVTLFPPSSEELQANKATLVCLISDFYPGAVTVAWKADSSPVKAGVETTTPSKQSNNKYAASSYLSLTPEQWKSHRSYSCQVTHEGSTVEKTVAPTECS",binding result,[2],no binding
same,binding result,[3],no binding
same,binding result,cOX40-mFc,no binding (tested: 200 nM)
same,binding result,hOX40-mFc,no binding (tested: 200 nM)
"G1/FS30-10-16 (antibody, IgG1, V domains shown, IgG1 format; also called CD137 Fab (in IgG1 format; FS30-010-016)) VH: EVQLLESGGGLVQPGGSLRLSCAASGFTFSSYDMSWVRQAPGKGLEWVSDIDPTGSKTDYADSVKGRFTISRDNSKNTLYLQMNSLRAEDTAVYYCARDLLVYGFDYWGQGTLVTVSS VL: EIVLTQSPGTLSLSPGERATLSCRASQSVSSSYLAWYQQKPGQAPRLLIYGASSRATGIPDRFSGSGSGTDFTLTISRLEPEDFAVYYCQQSYSYPVTFGQGTKVEIKR",EC50,[4],0.1 nM
same,EC50,[5],0.09 nM
same,binding result,[6],no binding
same,binding result,[7],no binding
